Patent publication US20160159919A1 (Chugai, published 2016)
Substitutions are numbered along the chain they refer to.

Experiments:
[1] = biological target: T1, cynomolgus EREG (Biacore analyte) (cynomolgus monkey, UniProt O14944 63-108 (human entry), limits assumed); experiment: SPR (Biacore T100); KD for monkey EREG over KD for human EREG
T1 construct: also called cynomolgus monkey EREG; cEREG
Procedure: (§1) The affinity and association rate constant of an anti-EREG antibody for an antigen were measured by the single-cycle kinetics method of surface plasmon resonance assay using Biacore™-T100 (GE Healthcare Japan). HBS-EP+ (GE Healthcare Japan) was used for the running buffer, and an amine coupling kit (GE Healthcare Japan) was used to covalently bond Protein A to the CM5 chip (carboxymethyl dextran-coated chip). Each anti-EREG antibody was prepared so that approximately 350 RU will be captured by Protein A. Human EREG or cynomolgus EREG used as the analyte was prepared at 0, 0.7, 1.4, 2.8, 5.6, and 11.2 nM using HBS-EP+. Measurement was carried out by first allowing Protein A to capture the antibody solution, and then at a flow rate of 30 μL/min, successively injecting each of the 0, 0.7, 1.4, 2.8, 5.6, and 11.2 nM human EREG or cynomolgus EREG solutions for three minutes to allow reaction to take place. Then, the solution was switched to HBS-EP+, and the dissociation phase was measured for 15 minutes. After completion of the dissociation phase measurement, the sensor chip was washed with 25 mM NaOH and regenerated. The measurement at zero concentration was similarly carried out by allowing Protein A to capture the antibody solution, and performing three-minute HBS-EP+ injections successively for five times to allow reaction to take place, and then switching to HBS-EP+ to measure the dissociation phase for 15 minutes. After completion of the dissociation phase measurement, the sensor chip was washed with 25 mM NaOH and regenerated. A data analysis software exclusively for Biacore, Biacore T100 Evaluation Software Version 2.0.1, was used to perform kinetic analyses to calculate the association rate constant (kₐ), dissociation rate constant (kd), and the rate constant ratio from the obtained sensorgrams. To correct for the day-to-day differences in the measurement values, FIGS. 1 to 4 and Tables 16 and 19 show ratios based on taking the value of the control sample (cH-G1/cL-k) measured on the same day as 1.

[2] = biological target: T2, Human EREG (Biacore analyte) (human, UniProt O14944 63-108); experiment: SPR (Biacore T100), antibody captured on Protein A, EREG as analyte, single-cycle kinetics
T2 construct: also called hEREG; human epiregulin
Procedure: as §1

[3] = biological target: T1, cynomolgus EREG (Biacore analyte); experiment: as above
Procedure: as §1

[4] = biological target: T1, cynomolgus EREG (Biacore analyte); experiment: SPR (Biacore T100), antibody captured on Protein A, EREG as analyte; KD for monkey EREG over KD for human EREG
Procedure: as §1

[5] = biological target: T3, hsEREG-His (mature human EREG-6His fusion protein) (human, UniProt O14944 30-108); experiment: cell-based or functional assay
T3 sequence: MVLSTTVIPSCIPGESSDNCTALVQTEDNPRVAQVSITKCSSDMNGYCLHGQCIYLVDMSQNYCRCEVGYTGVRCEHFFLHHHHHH

[6] = biological target: T4, soluble human EREG fragment having a mature EGF domain structure (R&D Systems cat. no. 1195-EP/CF) (human, UniProt O14944 63-108); experiment: competitive ELISA on coated soluble human EREG fragment
T4 construct: bought; coated on ELISA plates; also called human epiregulin; recombinant human Epiregulin
Procedure: The soluble human EREG fragment having a mature EGF domain structure (the polypeptide of SEQ ID NO: 34 which corresponds to ⁶³Val to ¹⁰⁸Leu) was purchased from R&D Systems (cat. no. 1195-EP/CF). The soluble human EREG fragment was used to coat nunc immunoplates, and after blocking with a BSA-containing solution, the competitive binding reactivity between mouse hybridoma-derived EP27 and the purified humanized anti-EREG antibody was analyzed. Mouse hybridoma-derived EP27 and a purified humanized anti-EREG antibody were added to the plates, and after two hours of incubation, the plates were washed; and an alkaline phosphatase-labeled anti-human IgG antibody (Zymed) was added to each well of the plates and then allowed to react. Each well was washed, and then the amount of bound antibody (A405/655 detection value) was determined by addition of a test reagent, Sigma p-Nitrophenyl phosphate Tablets.

T1 sequence (O14944 other isoform, or with tags, fused parts or gaps limits assumed): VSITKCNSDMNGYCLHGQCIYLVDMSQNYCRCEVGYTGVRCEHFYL

B1: H87-G1d/LB-k (antibody, human IgG1, kappa, V domains shown)
VH: QDQLVQSGAEVKKPGASVKVSCKASGFNIKDTYIQWVRQAPGQGLEWMGRIDPLTGQTKYQEKFEGRVTITADTSTNTAYMELSSLRSEDTAVYYCVRSGTSFDFWGQGTLVTVSS
VL: DIQMTQSPSSLSASVGDRVTITCKASQDIHKYIAWYQQKPGQAPRLLIQYTSTLQPGVPSRFSGSGSGTDYTFTISSLQPEDIATYYCLQYDNLRTFGGGTKVEIKR
[1]
  cEREG (nM)/hEREG (nM): 35.1 ratio
[2]
  Kd: 0.15 nM
  koff: 0.0002 s⁻¹
  kon: 1.3e+06 M⁻¹ s⁻¹
[3]
  Kd: 5.2 nM
  koff: 0.0045 s⁻¹
  kon: 860000 M⁻¹ s⁻¹
[4]
  cEREG KD (nM)/hEREG KD (nM): 35.1 ratio

B2: H111-G1d/L47-k (antibody, human IgG1, kappa, V domains shown)
VH: B1 VH with T55R, Q57N, Q61R, S102L
VL: B1 VL with N93R
[4]
  cEREG KD (nM)/hEREG KD (nM): 12.6 ratio

B3: H111-G1d/L48-k (antibody, human IgG1, kappa, V domains shown)
VH: B1 VH with T55R, Q57N, Q61R, S102L
VL: B1 VL with L94R
[4]
  cEREG KD (nM)/hEREG KD (nM): 8.4 ratio

B4: H111-G1d/LB-k (antibody, human IgG1, kappa, V domains shown)
VH: B1 VH with T55R, Q57N, Q61R, S102L
VL: B1 VL
[4]
  cEREG KD (nM)/hEREG KD (nM): 9 ratio

B5: H112-G1d/LB-k (antibody, human IgG1, kappa, V domains shown)
VH: B1 VH with I51R, T55R, Q57N, Q61R, S102L
VL: B1 VL
[4]
  cEREG KD (nM)/hEREG KD (nM): 16 ratio

B6: H116-G1d/LB-k (antibody, human IgG1, kappa, V domains shown)
VH: B1 VH with T55R, G56R, Q57N, Q61R, S102L
VL: B1 VL
[4]
  cEREG KD (nM)/hEREG KD (nM): 6.1 ratio

B7: H117-G1d/LB-k (antibody, human IgG1, kappa, V domains shown)
VH: B1 VH with T55R, Q57R, Q61R, S102L
VL: B1 VL
[4]
  cEREG KD (nM)/hEREG KD (nM): 7.9 ratio

B8: H118-G1d/LB-k (antibody, human IgG1, kappa, V domains shown)
VH: B1 VH with T55R, Q57N, T58R, Q61R, S102L
VL: B1 VL
[4]
  cEREG KD (nM)/hEREG KD (nM): 7.5 ratio

B9: H119-G1d/LB-k (antibody, human IgG1, kappa, V domains shown)
VH: B1 VH with T55R, Q57N, K59R, Q61R, S102L
VL: B1 VL
[4]
  cEREG KD (nM)/hEREG KD (nM): 9.8 ratio

B10: H120-G1d/LB-k (antibody, human IgG1, kappa, V domains shown)
VH: B1 VH with T55R, Q57N, Y60R, Q61R, S102L
VL: B1 VL
[4]
  cEREG KD (nM)/hEREG KD (nM): 9.1 ratio

B11: H121-G1d/LB-k (antibody, human IgG1, kappa, V domains shown)
VH: B1 VH with T55R, Q57N, Q61R, K63R, S102L
VL: B1 VL
[4]
  cEREG KD (nM)/hEREG KD (nM): 8.3 ratio

B12: H123-G1d/LB-k (antibody, human IgG1, kappa, V domains shown)
VH: B1 VH with T55R, Q57N, Q61R, G66R, S102L
VL: B1 VL
[4]
  cEREG KD (nM)/hEREG KD (nM): 8.2 ratio

B13: H124-G1d/LB-k (antibody, human IgG1, kappa, V domains shown)
VH: B1 VH with Y33R, T55R, Q57N, Q61R, S102L
VL: B1 VL
[4]
  cEREG KD (nM)/hEREG KD (nM): 20.6 ratio

B14: H131-G1d/LB-k (antibody, human IgG1, kappa, V domains shown)
VH: B1 VH with T55R, G56R, Q57N, Q61R, G100R, S102L
VL: B1 VL
[4]
  cEREG KD (nM)/hEREG KD (nM): 4.7 ratio

B15: H132-G1d/LB-k (antibody, human IgG1, kappa, V domains shown)
VH: B1 VH with T55R, G56R, Q57N, Q61R, T101R, S102L
VL: B1 VL
[4]
  cEREG KD (nM)/hEREG KD (nM): 4.6 ratio

B16: H133-G1d/LB-k (antibody, human IgG1, kappa, V domains shown)
VH: B1 VH with T55R, G56R, Q57N, Q61R, S102R
VL: B1 VL
[4]
  cEREG KD (nM)/hEREG KD (nM): 6.1 ratio

B17: H205-G1d/L73-k (antibody, human IgG1, kappa)
heavy: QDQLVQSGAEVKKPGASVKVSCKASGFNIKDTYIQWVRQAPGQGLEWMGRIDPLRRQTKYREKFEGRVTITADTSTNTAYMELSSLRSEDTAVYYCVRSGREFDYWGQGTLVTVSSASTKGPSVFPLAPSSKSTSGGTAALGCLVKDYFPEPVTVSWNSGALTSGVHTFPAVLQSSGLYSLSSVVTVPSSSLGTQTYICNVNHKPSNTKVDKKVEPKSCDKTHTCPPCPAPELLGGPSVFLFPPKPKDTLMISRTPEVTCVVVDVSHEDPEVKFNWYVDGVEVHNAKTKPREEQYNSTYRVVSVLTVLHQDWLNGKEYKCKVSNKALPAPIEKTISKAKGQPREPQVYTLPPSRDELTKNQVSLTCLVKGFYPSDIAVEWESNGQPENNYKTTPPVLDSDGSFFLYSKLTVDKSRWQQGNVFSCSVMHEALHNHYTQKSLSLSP
light: DIQMTQSPSSLSASVGDRVTITCRASQDIHKYIAWYQQKPGQAPRLLIQYTSTLQPGVPSRFSGSGSGTDYTFTISSLQPEDIATYYCLQYEQLRTFGGGTKVEIKRTVAAPSVFIFPPSDEQLKSGTASVVCLLNNFYPREAKVQWKVDNALQSGNSQESVTEQDSKDSTYSLSSTLTLSKADYEKHKVYACEVTHQGLSSPVTKSFNRGEC
[1]
  cEREG (nM)/hEREG (nM): 3.1 ratio
[2]
  Kd: 0.19 nM
  koff: 7.5e-05 s⁻¹
  kon: 390000 M⁻¹ s⁻¹
[3]
  Kd: 0.69 nM
  koff: 0.00026 s⁻¹
  kon: 370000 M⁻¹ s⁻¹

B18: H206-G1d/L53-k (antibody, human IgG1, kappa, V domains shown)
VH: B1 VH with K13N, T55R, G56R, Q61R, T101R, S102E
VL: B1 VL with K24R
[1]
  cEREG (nM)/hEREG (nM): 5.2 ratio
[2]
  Kd: 0.17 nM
  koff: 0.00011 s⁻¹
  kon: 660000 M⁻¹ s⁻¹
[3]
  Kd: 0.94 nM
  koff: 0.00061 s⁻¹
  kon: 640000 M⁻¹ s⁻¹

B19: H206-G1d/L73-k (antibody, human IgG1, kappa, V domains shown)
VH: B1 VH with K13N, T55R, G56R, Q61R, T101R, S102E
VL: B1 VL with K24R, D92E, N93Q
[5]
  IC50 (read off the curve), growth ratio of EGFR_BAF cells with hsEREG-His 2.5 ng/mL: ~0.8 µg/mL
[1]
  cEREG (nM)/hEREG (nM): 3.4 ratio
[2]
  Kd: 0.13 nM
  koff: 7.4e-05 s⁻¹
  kon: 550000 M⁻¹ s⁻¹
[3]
  Kd: 0.45 nM
  koff: 0.00023 s⁻¹
  kon: 500000 M⁻¹ s⁻¹

B20: H231-G1d/L73-k (antibody, human IgG1, kappa)
heavy: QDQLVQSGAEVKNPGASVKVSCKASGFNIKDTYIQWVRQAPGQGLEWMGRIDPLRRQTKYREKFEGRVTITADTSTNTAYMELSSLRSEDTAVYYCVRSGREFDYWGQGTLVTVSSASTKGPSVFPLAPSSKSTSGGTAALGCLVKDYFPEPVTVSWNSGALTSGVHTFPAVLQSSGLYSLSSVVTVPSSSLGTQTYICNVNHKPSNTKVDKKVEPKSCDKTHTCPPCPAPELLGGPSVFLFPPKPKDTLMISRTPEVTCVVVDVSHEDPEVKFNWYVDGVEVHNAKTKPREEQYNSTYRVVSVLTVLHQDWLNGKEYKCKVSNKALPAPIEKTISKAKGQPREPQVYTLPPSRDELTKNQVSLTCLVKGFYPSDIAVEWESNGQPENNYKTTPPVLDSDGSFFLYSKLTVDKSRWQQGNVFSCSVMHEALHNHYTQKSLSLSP
light: B17 light
[1]
  cEREG (nM)/hEREG (nM): 3.5 ratio
[2]
  Kd: 0.14 nM
  koff: 8.7e-05 s⁻¹
  kon: 620000 M⁻¹ s⁻¹
[3]
  Kd: 0.66 nM
  koff: 0.00028 s⁻¹
  kon: 420000 M⁻¹ s⁻¹

B21: HY-G1d/L12-k (antibody, human IgG1, kappa, V domains shown)
VH: B1 VH with T55N, Q57N, Q61V, E62P, E65Q, S102L
VL: B1 VL with Q55E
[6]
  binding result: binds

B22: HY-G1d/L30-k (antibody, human IgG1, kappa, V domains shown)
VH: B1 VH with T55N, Q57N, Q61V, E62P, E65Q, S102L
VL: B1 VL with D92E
notes: the text names only HY-G1d/L32-k as obtained; also called HY-G1/L30-k
[6]
  binding result: binds

B23: HY-G1d/L32-k (antibody, human IgG1, kappa, V domains shown)
VH: B1 VH with T55N, Q57N, Q61V, E62P, E65Q, S102L
VL: B1 VL with D92E, N93Q
notes: also called HY-G1/L32-k
[6]
  binding result: binds
